The target of assay [1] is SKN-1 50 amino acid bait construct encoding the lax120(S245L) mutation (C. elegans). Kind of assay: two-hybrid.
In assay [2] the target is SKN-1 50 amino acid bait construct encoding the lax188(E237K) mutation (C. elegans). In words: two-hybrid.

With “PGAM-5 (Y2H prey from the cDNA library) (natural protein)”, the results for the percent decrease of the interaction against the wild-type 50-mer bait in assay [1] and in assay [2] were 75% and 72%, respectively.

These data come from paper PMC3774140.
